The results in this text go back to IntAct's records for PubMed 24290140.

To fix the notation:
B1: Four and a half LIM domains protein 1 (Mus musculus), P97447-2 (parent)
chain: MSEKFDCHYCRDPLQGKKYVQKDGRHCCLKCFDKFCANTCVDCRKPISADAKEVHYKNRYWHDNCFRCAKCLHPLASETFVSKDGKILCNKCATREDSPRCKGCFKAIVAGDQNVEYKGTVWHKDCFTCSNCKQVIGTGSFFPKGEDFYCVTCHETKFAKHCVKCNKGLVKAPVWWPMKDNPGTTTASTAKNAP

The variants in the assay derive from B1. The following applies: with suh_mouse Rbpj.
With W175A;W176A, the “effect of a mutation on the interaction” value is recorded as “disrupting interaction strength”.
